Results on 73 sequences are retold here after the supplement of paper PMC10567573.

± gives the standard deviation.

The series in a line: protein stability index of a GFP-peptide fusion (GPS, HEK-293T) (PSI 1-6); higher = more stable.
Where [1] appears, read: treatment: DMSO, c terminus: a fixed tail appended.
[2] abbreviates: treatment: MLN4924 1 uM, 8 h, c terminus: a fixed tail appended.
[3] abbreviates: treatment: DMSO, c terminus: native.
The mark [4] stands for this setting: treatment: MLN4924 1 uM, 8 h, c terminus: native.
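Also: 24-mer peptide tiles fused after GFP, lentivirally expressed, FACS-sorted into six equal bins by GFP/DsRed ratio, decoded by Illumina sequencing, PSI is the read-weighted mean bin number.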

With NIQANNCFSTGLSRRVLLTNVVTG [DCAF4], the protein stability index by setting is: under setting [1], 2.54 ± 0.26; under setting [2], 2.63 ± 0.2.
On the same counts, the results for NKLQYHAGLASGLLNQQSLKRSAN [MED27] are 3.47 ± 0.25 and 3.51 ± 0.29.
On to NLAAMTPHDFIEHFLSKMPEAEEN [CCND1], for which the protein stability index by setting is: under setting [1], 4.49 ± 0.075; under setting [2], 4.49 ± 0.04.
For NLAKEQLSRENIQSSLLETLYRNR [PPEF2], the protein stability index runs as follows: under setting [1], 3.05 ± 0.28; under setting [2], 3.22 ± 0.12.
On the same counts, the results for NLFVMQVEMDIYTALKKWMFLQLV [GMCL1] are 2.74 ± 0.66 and 2.17 ± 0.39.
As to NLRAAGAEALGKLLQQNKSIQSLT [LRRC45], the protein stability index by setting is: under setting [1], 3.26 ± 0.19; under setting [2], 3.33 ± 0.19.
Take NLTRRFSDLGFEVKCFNDLKAEEL [CASP6]: the protein stability index runs as follows: under setting [1], 2.76 ± 0.46; under setting [2], 3 ± 0.27.
On the same counts, the results for NLYEEGRTAFLWRGNVVLRAQMIR [TRIM43] are 2.22 ± 0.2 and 2.06 ± 0.21.
In the case of NNPEYLRERNMAPDLRQDFNMMEQ [ADD1], the protein stability index reads like this: under setting [1], 4.74 ± 0.27; under setting [2], 4.87 ± 0.18.
Take NPFFAKTLQHWPHIIRIGDLKPTG [DENND6A]: the protein stability index reads like this: under setting [1], 2.21 ± 0.34; under setting [2], 2.07 ± 0.23.
On the same counts, the results for NSAIRFLRKYSFDGLDLDWEYPGS [CHIT1] are 2.38 ± 0.28 and 2.36 ± 0.32.
On the same counts, the results for NSTLDPHGHLILHSMHKYQPRIHL [TBX6] are 2.19 ± 0.17 and 2.34 ± 0.26.
With NSYPRADTGLFSRSKSGSEEVLCD [TRIM29], the protein stability index by setting is: under setting [1], 4.62 ± 0.33; under setting [2], 4.68 ± 0.32.
On the same counts, the results for NTFIALALQTLLTLIVVDASGLGL [SLC19A2] are 3.36 ± 0.57 and 3.3 ± 0.27.
In the case of NTLEGKKPGNNEGSGAPSPLSKSS [SNAP91], the protein stability index runs as follows: under setting [1], 5.41 ± 0.23; under setting [2], 5.35 ± 0.28.
NTVERYNPQENRWHTIAPMGTRRK [KLHL20] displayed a protein stability index under setting [1] of 4.43 ± 0.15 and a protein stability index under setting [2] of 4.59 ± 0.17.
On the same counts, the results for NYSSSQDALISVSYTIITPLFNPM [OR10K2] are 3.07 ± 0.46 and 2.92 ± 0.33.
On the same counts, the results for PAATEAYGSGDTPGGPCDSTLGGD [TBX6] are 5.46 ± 0.25 and 5.3 ± 0.55.
As for PAPKRGYSSEMKTEDELRVRHLEE [AUH], the protein stability index reads like this: under setting [1], 5.15 ± 0.48; under setting [2], 4.75 ± 0.87.
On the same counts, the results for PAWNSKLQYILAQIGFSVGLGNIW [SLC6A17] are 2.83 ± 0.45 and 2.47 ± 0.12.
On the same counts, the results for PDDFVPPVPPPSYFATFYSCTPRM [FAM189A2] are 2.65 ± 0.15 and 2.7 ± 0.32.
On the same counts, the results for PDTQALCHHLPVIRQLATSGRFIV [SMG5] are 2.07 ± 0.45 and 2.23 ± 0.44.
PEPGRAGYPAPRDEGVLRPRAHA [HAGHL]: the protein stability index under setting [3] came out at 3.29 ± 0.19 and the protein stability index under setting [4] amounted to 3.41 ± 0.28.
Turning to PERIYQGSSGSYFVKDPQGRIIAV [PI4K2A], the protein stability index runs as follows: under setting [1], 2.78 ± 0.25; under setting [2], 2.74 ± 0.46.
In the case of PESVERLTGVSISQVNHKPLRTA [FLOT1], the protein stability index is, setting by setting: under setting [3], 2.66 ± 0.69; under setting [4], 3.11 ± 0.18.
For the sequence PETMTCRLSNNQRYLFLDGDSHYE [ZFYVE21], the protein stability index amounted to 2.52 ± 0.45 under setting [1] and 2.8 ± 0.33 under setting [2].
PFAFVEFEDPRDAEDAVYGRDGYD [SRSF1]: the protein stability index runs as follows: under setting [1], 4.76 ± 0.15; under setting [2], 4.64 ± 0.2.
With PFVSAMPTPMPHNKGTRFSEAWEY [ZBED2], the protein stability index by setting is: under setting [1], 2.88 ± 0.23; under setting [2], 2.94 ± 0.11.
On the same counts, the results for PGIDRPGMLCSFRIPGAWSCAWSL [DCAF4] are 3.32 ± 0.45 and 2.96 ± 0.61.
On the same counts, the results for PGQVAGADFESEDEGEEFDDWEDD [EID1] are 5.52 ± 0.59 and 5.59 ± 0.2.
On the same counts, the results for PGRRGDPDTAPPSERPLEDLRLRL [RTN2] are 4.43 ± 0.2 and 4.63 ± 0.21.
Consider PGSASLAQSRLEDPGADSEKSTVV [DLX1], for which the protein stability index came out at 5.49 ± 0.38 under setting [1] and 5.36 ± 0.26 under setting [2].
On the same counts, the results for PHLPRVMLPGVLAGVSAEESWAGP [SCNN1D] are 3.37 ± 0.34 and 3.4 ± 0.24.
On the same counts, the results for PHYPEYFQQPAPEYHQPQAPANVA [LOXL2] are 4.26 ± 0.2 and 4.2 ± 0.28.
Regarding PIDGTTNFVHRFPFVAVSIGFAVN [IMPA1], the protein stability index reads like this: under setting [1], 2.96 ± 0.76; under setting [2], 2.39 ± 0.55.
For the sequence PIGKISKNKKKKLKKKQKRQAELL [SRPK2], under setting [1], the protein stability index is 4.37 ± 0.17.
PKPAGGAIPTKKSLPSPSSSGHQN [FBF1] yielded a protein stability index under setting [1] of 4.98 ± 0.14 and a protein stability index under setting [2] of 4.92 ± 0.17.
Sequence PLEGSAKGKVQAELSQPLTAGGAI [RBBP5] had a protein stability index under setting [1] of 4.88 ± 0.19 and a protein stability index under setting [2] of 4.72 ± 0.35.
For PLEPEDALSDAEFEGEGDYEEGMY [P3H4], the protein stability index amounted to 5.59 ± 0.3 under setting [1] and 5.44 ± 0.34 under setting [2].
For the sequence PLMVKGFRDAAEEGGTAVTGGQTV [SEPHS2], the protein stability index by setting is: under setting [1], 5.05 ± 0.3; under setting [2], 5.16 ± 0.13.
The sequence PLSVHRPPTSGCLGPVPREDQAEA [TSPAN10] returned a protein stability index under setting [1] of 5.23 ± 0.17 and a protein stability index under setting [2] of 5.1 ± 0.075.
On the same counts, the results for PNIQEAVEGAMHIQECVPEDLELK [CRYL1] are 5.49 ± 0.13 and 5.57 ± 0.19.
In the case of PNQAMVVAAAGDACPPQHVPPKDS [TBC1D10A], the protein stability index came out at 5.5 ± 0.14 under setting [1] and 5.37 ± 0.12 under setting [2].
As for PPATQNTFGNSTLALGPGESLPHR [PLAGL1], the protein stability index is, setting by setting: under setting [1], 4.63 ± 0.34; under setting [2], 4.39 ± 0.083.
PPPDAAATAASSSASSPASVGDPC [SLC25A25]: the protein stability index is 5.39 ± 0.14 under setting [1] and 5.58 ± 0.13 under setting [2].
Consider PPPLGPVVPVLVFPPDLVFRADQR [MOSPD3], for which the protein stability index by setting is: under setting [1], 3.25 ± 0.13; under setting [2], 3.22 ± 0.32.
As to PPPSAPASEYCPGKLSWGTMARAL [WDR88], the protein stability index under setting [1] was 3.02 ± 0.24 and the protein stability index under setting [2] was determined as 2.97 ± 0.4.
On the same counts, the results for PPSVLISKNEVGIFTTPNFDETSS [KMT2E] are 4.09 ± 0.12 and 4.33 ± 0.069.
With PQHVSSDKEVRAASTEADKRLSRF [NLN], the protein stability index under setting [1] was determined as 5.3 ± 0.18 and the protein stability index under setting [2] amounted to 5.1 ± 0.22.
On the same counts, the results for PRALIFSTDDFFFREDGAYEFNPD [N4BP2L1] are 2.95 ± 0.41 and 3.66 ± 0.48.
On the same counts, the results for PSDPLVSIGALISKAHLEKVRSYV [ALDH8A1] are 2.05 ± 0.079 and 2.12 ± 0.13.
Regarding PSEEYGKILEVVGRYSVHNAGISF [MLH1], under setting [1], the protein stability index stood at 2.32 ± 0.36.
For the sequence PSGEEEAKVGPGLPDGCQPLQLLR [CBY2], the protein stability index came to 4.75 ± 0.22 under setting [1] and 4.79 ± 0.27 under setting [2].
On the same counts, the results for PSGNNGSVNWRTGSFHGPGHISLR [DLC1] are 3.09 ± 0.18 and 3.01 ± 0.19.
On the same counts, the results for PSHGEVGEHKDRIERQWGNLLGEG [ZSCAN9] are 4.47 ± 0.19 and 4.47 ± 0.36.
On the same counts, the results for PSNSSSLTLSGIKEDNSLLNQGFL [MYBL2] are 3.57 ± 0.35 and 3.81 ± 0.45.
For PSSNNKELFYRVNYIGTKNVIETC [NSDHL], the protein stability index runs as follows: under setting [1], 2.7 ± 0.2; under setting [2], 2.55 ± 0.18.
On the same counts, the results for PTLDAPGGRALVVRKVPPGYSIKV [SMAD6] are 2.83 ± 0.17 and 3.17 ± 0.19.
On the same counts, the results for PTQEEWRQVVDILWSDPMAQEGCK [PPEF2] are 3.96 ± 0.39 and 4.21 ± 0.079.
On the same counts, the results for PVRCAGDWLPRGLGWGGRGAAVCA [ALG2] are 2.57 ± 0.36 and 2.25 ± 0.27.
Turning to PVRPVSRGCLHSHGLQEGKDLFTQ [CDC25A], the protein stability index runs as follows: under setting [1], 3.15 ± 0.33; under setting [2], 3.21 ± 0.13.
PVVKKKGVKRKADTTTPTTSAITA [BRD3]: the protein stability index runs as follows: under setting [1], 5.03 ± 0.29; under setting [2], 5.01 ± 0.19.
On the same counts, the results for QAEFTAMRDQYMRAGEGFIICYSI [RIT1] are 3.38 ± 0.48 and 3.04 ± 0.8.
Take QALQAKASLTIPLVPETEDDRKLA [YJU2B]: the protein stability index runs as follows: under setting [1], 5.16 ± 0.24; under setting [2], 5.24 ± 0.11.
On the same counts, the results for QAQIDQYLGLVRTHINAVVAKIQA [RTN1] are 2.08 ± 0.35 and 2.35 ± 0.28.
Consider QCMQPNNIMGIENICELAARMLFS [NR2F2], for which the protein stability index is, setting by setting: under setting [1], 2.45 ± 0.68; under setting [2], 2.49 ± 0.36.
Turning to QDLDSRLRAGSSEFDSEHNLTSNE [RASAL3], the protein stability index reads like this: under setting [1], 5.52 ± 0.29; under setting [2], 5.42 ± 0.19.
As to QEAKLLHWNGRHKPWDFPSVHNDL [GLT8D2], the protein stability index amounted to 3.11 ± 0.19 under setting [1] and 2.9 ± 0.28 under setting [2].
On the same counts, the results for QELLDTVLVNLVPAHKNLNKQAYD [PDS5B] are 2.95 ± 0.34 and 3.02 ± 0.3.
Regarding QETAKEEDGSVELESQVQKDGVAD [C18orf25], the protein stability index runs as follows: under setting [1], 5.55 ± 0.24; under setting [2], 5.61 ± 0.34.
On the same counts, the results for QFHKQIAVMRGQILNLTQALKDNK [PI4K2A] are 2.5 ± 0.36 and 2.8 ± 0.35.
On the same counts, the results for QGQPVVNRPLSLKDQQTFARSVGL [TRADD] are 3.67 ± 0.35 and 3.9 ± 0.12.
Regarding QGYVSDIRRFLSAFHEPQVGLIQA [DFFB], the protein stability index by setting is: under setting [1], 2.15 ± 0.47; under setting [2], 2.38 ± 0.17.
